Patent US20250296960A1, “PEPTIDE COMPOSITIONS AND METHODS OF USE THEREOF” (priority 2022, published 2025)
Like-named read-outs stand apart in the source and are kept apart here. Numbered stars: 1 amine (or outer) side, 2 acyl side, 3 side chain; on linkers, the order of the positions; unused ones are H or OH. Square brackets hold non-standard residues; d marks the D form. Primed or numbered codes have the meaning given here. Side chains are listed from the residue outwards. Ends that are not written are not given here. * marks the point of attachment. C18 = C18 fatty acid (C16-C22 fatty acids conjugated via γGlu/8-amino-3,6-dioxaoctanoic acid spacers); C18″ = C18 fatty acid moiety (of 2OEG-γGlu-C18, K*); γGlu = O=C(O)[C@H](CCC(=O)[*:2])N[*:1]; αMeR = C[C@](N)(CCCNC(=N)N)C(=O)O; AEEA = NCCOCCOCC(=O)O; Aib = CC(C)(N)C(=O)O

T1: human glucose-dependent insulinotropic polypeptide receptor (GIPR), expressed on CHO-K1 cells (human, UniProt P48546 22-466)
T1 sequence (looked up): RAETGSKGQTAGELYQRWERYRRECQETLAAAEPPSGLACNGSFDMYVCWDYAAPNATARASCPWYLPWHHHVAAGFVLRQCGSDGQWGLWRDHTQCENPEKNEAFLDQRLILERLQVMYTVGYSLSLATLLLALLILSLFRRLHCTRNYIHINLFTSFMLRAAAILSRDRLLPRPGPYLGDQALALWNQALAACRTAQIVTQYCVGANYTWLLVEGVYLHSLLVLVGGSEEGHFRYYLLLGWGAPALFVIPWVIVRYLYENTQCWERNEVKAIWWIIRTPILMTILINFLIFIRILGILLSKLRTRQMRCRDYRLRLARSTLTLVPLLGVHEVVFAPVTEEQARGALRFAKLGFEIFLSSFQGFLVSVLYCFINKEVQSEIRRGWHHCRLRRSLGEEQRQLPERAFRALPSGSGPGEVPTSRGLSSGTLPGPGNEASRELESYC


How the values were obtained:
Test in all cases: cell-based or functional assay
[1] = molecular target: T2, human GLP-1 receptor (GLP-1R), expressed on CHO-K1 cells (human, UniProt P43220 24-463)
[2] = molecular target: T1, human glucose-dependent insulinotropic …
[3] = molecular target: T3, human glucagon receptor (GCGR), expressed on CHO-K1 cells (human, UniProt P47871 26-477)
[4] = molecular target: T2, human GLP-1 receptor (GLP-1R), …; remark: listed apart in the source
[5] = molecular target: T1, human glucose-dependent insulinotropic …; remark: listed apart in the source
[6] = molecular target: T3, human glucagon receptor (GCGR), …; remark: listed apart in the source
[7] = molecular target: T2, human GLP-1 receptor (GLP-1R), …; remark: listed apart in the source
[8] = molecular target: T1, human glucose-dependent insulinotropic …; remark: listed apart in the source
[9] = molecular target: T3, human glucagon receptor (GCGR), …; remark: listed apart in the source
[10] = molecular target: T2, human GLP-1 receptor (GLP-1R), …; remark: listed apart in the source
[11] = molecular target: T1, human glucose-dependent insulinotropic …; remark: listed apart in the source
[12] = molecular target: T3, human glucagon receptor (GCGR), …; remark: listed apart in the source

T3 sequence (P47871 26-477): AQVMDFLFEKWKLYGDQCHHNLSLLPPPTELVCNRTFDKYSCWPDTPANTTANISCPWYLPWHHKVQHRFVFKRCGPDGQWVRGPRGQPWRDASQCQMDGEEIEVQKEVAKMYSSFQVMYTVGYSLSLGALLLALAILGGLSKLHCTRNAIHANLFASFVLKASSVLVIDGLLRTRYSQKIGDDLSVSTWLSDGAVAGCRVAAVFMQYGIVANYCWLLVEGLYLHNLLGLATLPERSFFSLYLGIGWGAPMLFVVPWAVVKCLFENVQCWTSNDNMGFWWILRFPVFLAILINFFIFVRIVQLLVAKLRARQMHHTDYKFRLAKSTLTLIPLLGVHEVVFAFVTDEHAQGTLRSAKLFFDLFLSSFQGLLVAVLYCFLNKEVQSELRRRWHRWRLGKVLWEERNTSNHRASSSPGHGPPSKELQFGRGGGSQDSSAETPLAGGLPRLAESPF

Row | Binder | Relative % to non-lipidated peptide [1] [%] | Relative % to non-lipidated peptide [2] [%] | Relative % to non-lipidated peptide [3] [%] | Ratio vs. GLP-1R [4] | Ratio vs. GLP-1R [5] | Ratio vs. GLP-1R [6] | Relative % to native ligand [7] [%] | Relative % to native ligand [8] [%] | Relative % to native ligand [9] [%] | Ratio vs. GLP-1R [10] | Relative % to native ligand [10] [%] | Ratio vs. GLP-1R [11] | Relative % to native ligand [11] [%] | Ratio vs. GLP-1R [12] | Relative % to native ligand [12] [%]
1 | Y[Aib]QGTFTSDYSK([AEEA-AEEA-γGlu-C18″])LLDYMMQRDFVQWLLEGGPSSGAPPPS-NH2 [Peptide No. 5-3D] | 19 | 15 | 1 | 100 | 880 | 9 | 119 | 1050 | 11 | 100 | 219 | 105 | 230 | 26 | 56
2 | Y[Aib]QGTFTSDYSK([AEEA-AEEA-γGlu-C18″])LLDYMMQ[αMeR]DFVQWLLEGGPSSGAPPPS-NH2 [SEQ ID NO. 101] |  |  |  |  |  |  |  |  |  | 100 | 722 | 65 | 472 | 12 | 89
3 | Y[Aib]QGTFTSDYSK([AEEA-AEEA-γGlu-C18])LLDYMMQHDFVQWLLEGGPSSGAPPPS-NH2 [SEQ ID NO. 99] |  |  |  |  |  |  |  |  |  | 100 | 35 | 3240 | 1130 | 80 | 28
4 | Y[Aib]QGTFTSDYSK([AEEA-AEEA-γGlu-C18″])LLDYMMQQDFVQWLLEGGPSSGAPPPS-NH2 [SEQ ID NO. 100] |  |  |  |  |  |  |  |  |  | 100 | 54 | 103 | 55 | 56 | 30
